A short description of the series: amyloid nucleation score (Sup35N fusion, yeast selection) (log enrichment); library NNK1; higher = more nucleation; inactive = no reads after selection. In outline: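 Random libraries were run with three technical output replicates. In each, psi-negative yeast expressing Sup35N fused to peptides of 20 random codons were induced 24 hours with 100 μM copper sulfate and grown 7 days at 30°C on medium lacking adenine and uracil, and input and output plasmid inserts were Illumina-sequenced. The nucleation score is the DiMSum log enrichment of output over input reads, centred on the mode score of non-aggregating sequences, and sequences under 100 input reads were excluded.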

± gives the uncertainty stated by the source.

As to GSMWGGFPVG, the amyloid nucleation score turned out to be 1.07 ± 0.85. For FLGLLLCCLVRAPLPFGMRA the value was -0.459 ± 0.56. Regarding LPFGGAWVSLCLLRVICILR, the amyloid nucleation score entry was “inactive”. Substance VKQTGLVARMRWVTGLARDG gave an amyloid nucleation score of -0.921 ± 1.3. For PCQFMASSYFHK the value was “inactive”; for TSKSTLYSECVMWPVDPEPT, 0.273 ± 0.58. In the case of RKSEGIDVCGYNISAIYFKC, the amyloid nucleation score was 0.142 ± 0.64. As for AVIFVVLKMSFSISECDDEW, the amyloid nucleation score entry is “inactive”. Regarding VTKFLWYIPGPKIGRFYLSN, the amyloid nucleation score was found to be 0.43 ± 0.38. FAGFTGGVLYGVWRLLGSCR came in with an amyloid nucleation score of -0.022 ± 0.59. As for YHTSRYRCTMYMGNSHGAMP, the amyloid nucleation score came out at 0.228 ± 0.97.

Take SCTGCLFDTELRWISWVGLF: the amyloid nucleation score is 0.074 ± 0.39. For KDISITCLLYPKNHSGYSGT the value was 0.058 ± 0.25. For SLVASNSQL the value was 0.06 ± 0.45. For FTWIVFANSSAYFRTLQWSC the value was 0.032 ± 0.28. In turn, VQYNLTCNYY had an amyloid nucleation score of 4.01 ± 0.14. In the case of FISSNDIYGGATGWDSSDVT it was -0.743 ± 0.36; in that of VDCLGFLEHICGLGDIIKTK, 0.341 ± 0.25.

Consider MFYSFNDVGWFAFRFSEIGV, for which the amyloid nucleation score is -0.539 ± 0.41.

In turn, WRMCSHCVLPHSMFSDSNTV gave an amyloid nucleation score of -1.03 ± 1.3. For TLRVIAVVDTFSRVYFR the value was 3.58 ± 0.12; for FNVISVWSPWQW, 6.3 ± 0.064; for AISTCQKRVYFWVQSGFVT, -0.072 ± 0.2. FSTHSIWSLRVSNSVSLFNE: the amyloid nucleation score was 0.178 ± 0.66. In the case of SKTRVLM it was -0.374 ± 0.41; in that of RKYQQGSLHDSGIKNHFFRV, -0.97 ± 1.7; in that of WVCFIFIIFETVS, -0.207 ± 0.47. In the case of LYGPQSPGRSPVSTFGRGRF it was 0.321 ± 0.4.

In turn, PFNMVWMRKYHLRSR showed an amyloid nucleation score of -0.378 ± 0.34. For TMWIAGVRNR the value was -0.367 ± 0.62; for SVDLVMEYSCDGNTLDFRSL, 0.157 ± 1.4; for HLKRRLKFDSGTSYQLVQKV, 0.177 ± 1. For the substance LLTSIPRRVIARVSEGFCCN, the amyloid nucleation score is -0.311 ± 0.71. Consider LYHSTLYLNVCYTYHSAGGN, for which the amyloid nucleation score turned out to be 1.24 ± 0.21. The substance LIRMHTICVWDSSVIMSIMA yielded an amyloid nucleation score of -0.354 ± 0.44. For WSTCLCGYCCVI the value was 1.31 ± 0.2; for QNIGGFMARFIIFILLYDHW, 0.714 ± 0.84.

On to CHELLALDLLSMRNS, for which the amyloid nucleation score is 0.416 ± 0.55. For GGIYSLSMNIVWATGCL the value was -0.361 ± 0.93; for YVEQYLWDSDWSSGI, 0.974 ± 0.14; for AHFHPLEVRFTIHDFLADNL, -0.215 ± 0.5. In the case of VGIGLSFQTEQSVCTDLLYS it was -0.203 ± 0.69; in that of TIHFRSDQHLSNIWRGFWQY, “inactive”; in that of FKSVGLTWALRGRINKTYLE, 0.195 ± 0.21.

As to TIDGSPIGMTTWPVPSFKFS, the amyloid nucleation score is 0.742 ± 0.56. In the case of CIDYLRSDC it was 1.2 ± 0.53. In turn, KCLTMDFLR gave an amyloid nucleation score of -1.12 ± 1.1.

The substance FFLRESNVGLAQRATMELLD registered an amyloid nucleation score of 0.13 ± 1.2.

Turning to KIRVYSRCCFLSG, the amyloid nucleation score amounted to 5.63 ± 0.071.

DHIEMFGKVGYYHNMILW showed an amyloid nucleation score of 0.762 ± 0.37.

On to GDAMASFPAACCGTRCCGFV, for which the amyloid nucleation score came to 0.41 ± 0.4.

In the case of RERVISVWGL, the amyloid nucleation score was -0.197 ± 0.45.

ESSMLAMVGIQSTWCNVSYG returned an amyloid nucleation score of 1.67 ± 0.2. MHGSGLHSDSLGPTV: the amyloid nucleation score was found to be 0.565 ± 0.69. As for FYLSYVIIYSSSIRCLSSCR, the amyloid nucleation score came to 0.388 ± 0.71. Turning to INLCAFGLPLVKVLHWLLYL, the amyloid nucleation score result is “inactive”. Consider CPMEKSGVELDV, for which the amyloid nucleation score is 0.094 ± 0.41. In the case of CCDSPSRRSRAKECRMKYSM, the amyloid nucleation score is -1.32 ± 1.2. On to FHFWEMFTQEAAPIWRWF, for which the amyloid nucleation score is -0.139 ± 0.75. For LERYVSMRFSWWDSSKKNTW, the amyloid nucleation score amounted to 4.18 ± 0.086.

AVSVWYYSRVRGRG showed an amyloid nucleation score of 0.025 ± 0.46. Regarding GYILPLLDVDYVKSVMICFW, the amyloid nucleation score was 3.8 ± 0.094. In the case of GSSCNSLPFYVRDRFNTPCV it was “inactive”; in that of RDVCLQSGMVVFYF, 6.905 ± 0.061. In the case of VIGLSQWVNSLSYRFEMQNL it was 4.72 ± 0.094.

With SGTRFLFEPSELINPYNHRC, the amyloid nucleation score was found to be 1.15 ± 0.68.

In turn, SCMMYQMCNWHERAPSTVLL came in with an amyloid nucleation score of 0.908 ± 0.58. As for SEYAVNSGSITFFIHAVWCW, the amyloid nucleation score was 0.349 ± 0.26. As for HCVEVSYKTSYAKELSFRVC, the amyloid nucleation score was -0.142 ± 1.1. In turn, WYYDCWIYL had an amyloid nucleation score of 1.25 ± 0.46. VDCPIECTAAGRSHDSGV: the amyloid nucleation score worked out at 1.42 ± 0.63. Turning to TSMLSGSWSRPDPLTDSSGD, the amyloid nucleation score was 0.517 ± 0.47.

Regarding LDLSSWGTVP, the amyloid nucleation score was determined as 0.122 ± 0.44.

The substance GVKSQTMLGLQRSAAFILCY yielded an amyloid nucleation score of -0.127 ± 0.55.

Turning to YQLTQLGLLS, the amyloid nucleation score worked out at 0.025 ± 0.49. The substance TSLRFLSVRS had an amyloid nucleation score of 0.011 ± 0.49. In the case of SDFLTWCDQSLRCVDRYPNA it was 0.648 ± 0.97; in that of DYSMFHTVLKVRVCNYFFVW, 2.37 ± 0.24. For ENRQIWCANGNVVGGTALGV the value was 0.734 ± 0.69; for WAHGLLFSYDSLHWYYICKV, 0.304 ± 0.44; for LSEEWTIYKFNRRRMKIGRG, 0.707 ± 0.4. In turn, QPSKCGAWGPLFIAGVGLTQ displayed an amyloid nucleation score of 0.231 ± 0.33.

SIPLCTLESQSEKVTWISDQ returned an amyloid nucleation score of 0.325 ± 0.78. Turning to SCSVYTGYSYGLRYNFDLVS, the amyloid nucleation score is -1.81 ± 2.4. For the substance VWACSPGDVAFMP, the amyloid nucleation score is 0.762 ± 0.97. In turn, RRYCDTTVFHGYSVSCRAYG registered an amyloid nucleation score of -0.842 ± 0.74. For APNFLMCNRPGIF the value was 3.02 ± 0.086. For PLFNNSRRCWGFGSLEDYLL the value was 0.213 ± 0.53.

As to YGSSLAAWVRLCVLTGDSRQ, the amyloid nucleation score was determined as 1.46 ± 0.38. On to SSNSGYSWSFTAWMGLGMRR, for which the amyloid nucleation score was -0.037 ± 1.7. The substance AWAVGFYPFCRMFRSLYNYW had an amyloid nucleation score of 0.387 ± 0.98. For DWRYPLAYPVFSIDSRMFD the value was -0.312 ± 0.46. In turn, QLPAFGINMSRLSNSCSYGC displayed an amyloid nucleation score of 0.095 ± 0.59. In the case of CQSFIGTDTKFVIPDMVLAA, the amyloid nucleation score entry was “inactive”. In the case of FLLCVSHLELSY it was 0.968 ± 0.49; in that of IIINGVL, 0.029 ± 0.62; in that of YTGKRKT, -0.5 ± 0.46. In the case of CYGFCNCQYSESSKLLFDAL it was -1.11 ± 0.34; in that of LSMCYIFCDARYLYSQCFGV, 4.38 ± 0.12; in that of SVPRSGKALLLSMMQLGYDS, 0.09 ± 0.39. For SWSITPNKKFDKTVSFQYHD the value was “inactive”; for YFDVL, -0.537 ± 0.48; for FGMIFFLLTMALRDVCVRLR, 7.24 ± 0.084.

ACQLLMCLCFFETKGLYLDG returned an amyloid nucleation score of 7.603 ± 0.053. Take MGHVLGVYKSP: the amyloid nucleation score stood at 1.2 ± 0.46. Turning to HCFRWSMLGLRYATCPFQSD, the amyloid nucleation score was -0.108 ± 0.37. In the case of LGIFSNIYGFV it was 0.277 ± 0.45. Substance IWWVDGVKTGSF yielded an amyloid nucleation score of 1.21 ± 0.76. In the case of SHTLHDAIYGVDVQPFDTRV it was 0.102 ± 0.66. For FWNINSSFFGLTNDTLVPNF the value was 0.79 ± 0.22; for DFFRSANMYLGFASGGEGNG, 0.77 ± 0.52. In the case of RNYTVKKMNLC it was “inactive”; in that of FICVMTRSGQDSSGMLLREG, 0.105 ± 0.2. Regarding GSWIFCVFHLNMDFCSMGST, the amyloid nucleation score was -0.023 ± 0.6. In turn, RPLFIMSLFRGWRRIKLHGS had an amyloid nucleation score of -0.527 ± 0.49. In the case of LRRFLPMALDDED, the amyloid nucleation score is -0.676 ± 1.4. For FRWYRLRIIKSFSGNSASVR the value was 3.1 ± 0.074; for RHWDIRSGHNLWQMVG, -0.55 ± 0.38; for FMLCNFLVVIYSGSR, 5.82 ± 0.063.

In the case of VLPRVWCCNADNDSIVDFRG, the amyloid nucleation score is 2.35 ± 0.097. PGWYFDTGSAPLQVSRRSGL yielded an amyloid nucleation score of 0.66 ± 0.63. Consider PGSWVTESLMTYRLCNLSNV, for which the amyloid nucleation score was 0.455 ± 0.35.

FVQWFASSCCIRPRRYFVSR returned an amyloid nucleation score of -1.42 ± 1.6.

With PNDSYNGL, the amyloid nucleation score is -0.421 ± 0.46.

EGLTNMWGGSYYNGLTFMGQ registered an amyloid nucleation score of -0.754 ± 0.54. In turn, FAQWDNLSARSLKGDQRESA showed an amyloid nucleation score of 0.302 ± 0.52. On to LAPASLSSSGYKNCFNRTVR, for which the amyloid nucleation score was determined as 4.08 ± 0.11.

As for LGTKL, the amyloid nucleation score worked out at 0.601 ± 0.63.

The substance HRIITCPFTSWNH gave an amyloid nucleation score of 0.816 ± 0.54. For RYRCSKVRRAMSKLTYVGMA the value was 4.18 ± 0.07.

The substance YTANYGILVFAVC registered an amyloid nucleation score of -0.702 ± 1.4. SMSSSWG registered an amyloid nucleation score of 0.19 ± 0.56. In the case of GLREMRNISAVFCFRLYICL it was 1.58 ± 0.14. YNPNGLTMGCGHKYTVEHTT gave an amyloid nucleation score of 0.128 ± 0.47. Turning to HYSFFE, the amyloid nucleation score was -0.806 ± 0.8. As for DSWIQHGGCEFVLIVRRHFI, the amyloid nucleation score was 0.714 ± 0.97.

The substance NGWPWGERSALRMG came in with an amyloid nucleation score of -0.573 ± 0.95.

Consider CSTTLEVTVGMAVVMLLQGI, for which the amyloid nucleation score worked out at 2.66 ± 0.086.

These data come from the supplement of paper PMC12042874.
